The labels stand for the following.
B1: TfR1-Dig bispecific antibody (digoxigenylated payload binding blood brain barrier-shuttle module that binds TfR with high affinity) (bispecific antibody, human IgG1, kappa)
light: QIVLTQSPAIMSASPGEKVTMTCSASSSIRYIHWYQQRPGTSPKRWIYDTSNLASGVPARFSGSGSGTSYSLTISSMEAEDAATYYCHQRNSYPWTFGGGTRLEIKRTVAAPSVFIFPPSDEQLKSGTASVVCLLNNFYPREAKVQWKVDNALQSGNSQESVTEQDSKDSTYSLSSTLTLSKADYEKHKVYACEVTHQGLSSPVTKSFNRGEC
heavy: not shown
notes: also called anti-TfR1 antibody-Dig
B2: TfR2-Dig bispecific antibody (digoxigenylated payload binding blood brain barrier-shuttle module that binds TfR with reduced affinity) (bispecific antibody, human IgG1, kappa)
light: B1 light with M21V, I32M, R38K, N52E, S75N, N91S, W95F, R102K
heavy: not shown
notes: also called anti-TfR2-antibody Dig
B3: TfR2-Bio bispecific antibody (biotinylated payload binding blood brain barrier-shuttle module that binds TfR with reduced affinity) (bispecific antibody, human IgG1, kappa)
light: B1 light with M21V, I32M, R38K, N52E, S75N, N91S, W95F, R102K
heavy: not shown
notes: also called anti-TfR2-Bio
B4: TfR1-Bio bispecific antibody (biotinylated payload binding blood brain barrier-shuttle module that binds TfR with high affinity) (bispecific antibody, human IgG1, kappa)
light: B1 light
heavy: not shown
notes: also called anti-TfR1 antibody-Bio
B5: anti-TfR1 antibody (high affinity bivalent anti-TfR antibody, parent antibody without hapten-binding scFvs) (antibody, human IgG1, kappa, V domains shown)
VH: EVQLQQSGPELVKPGASMKISCKASGYSFTGYTMNWVKQSHGENLEWIGRINPHNGGTDYNQKFKDKAPLTVDKSSNTAYMELLSLTSEDSAVYYCARGYYYYSLDYWGQGTSVTVSS
VL: QIVLTQSPAIMSASPGEKVTMTCSASSSIRYIHWYQQRPGTSPKRWIYDTSNLASGVPARFSGSGSGTSYSLTISSMEAEDAATYYCHQRNSYPWTFGGGTRLEIKR
notes: also called antibody TfR1
B6: anti-TfR2 antibody (bivalent anti-TfR antibody with reduced affinity, parent antibody without hapten-binding scFvs) (antibody, human IgG1, kappa, V domains shown)
VH: EVQLQQSGPELVKPGASVKMSCKASGYTFTSYVMHWVKQKPGQGLEWIGYVNPYNDDTKYNEKFRGKATLTSDKSSSTAYMELSSLTSEDSAVYYCARSYYYYSMDNWGQGTSVTVSS
VL: B5 VL with M21V, I32M, R38K, N52E, S75N, N91S, W95F, R102K
notes: also called antibody TfR2

Positions count from the first letter of the chain named.

One experiment deals with T1, human transferrin receptor (TfR) on hCMEC/D3 brain endothelial cells (human, UniProt P02786 1-760).
T1 construct: whole, on cells; also called blood brain barrier receptor
T1 sequence (P02786 whole entry): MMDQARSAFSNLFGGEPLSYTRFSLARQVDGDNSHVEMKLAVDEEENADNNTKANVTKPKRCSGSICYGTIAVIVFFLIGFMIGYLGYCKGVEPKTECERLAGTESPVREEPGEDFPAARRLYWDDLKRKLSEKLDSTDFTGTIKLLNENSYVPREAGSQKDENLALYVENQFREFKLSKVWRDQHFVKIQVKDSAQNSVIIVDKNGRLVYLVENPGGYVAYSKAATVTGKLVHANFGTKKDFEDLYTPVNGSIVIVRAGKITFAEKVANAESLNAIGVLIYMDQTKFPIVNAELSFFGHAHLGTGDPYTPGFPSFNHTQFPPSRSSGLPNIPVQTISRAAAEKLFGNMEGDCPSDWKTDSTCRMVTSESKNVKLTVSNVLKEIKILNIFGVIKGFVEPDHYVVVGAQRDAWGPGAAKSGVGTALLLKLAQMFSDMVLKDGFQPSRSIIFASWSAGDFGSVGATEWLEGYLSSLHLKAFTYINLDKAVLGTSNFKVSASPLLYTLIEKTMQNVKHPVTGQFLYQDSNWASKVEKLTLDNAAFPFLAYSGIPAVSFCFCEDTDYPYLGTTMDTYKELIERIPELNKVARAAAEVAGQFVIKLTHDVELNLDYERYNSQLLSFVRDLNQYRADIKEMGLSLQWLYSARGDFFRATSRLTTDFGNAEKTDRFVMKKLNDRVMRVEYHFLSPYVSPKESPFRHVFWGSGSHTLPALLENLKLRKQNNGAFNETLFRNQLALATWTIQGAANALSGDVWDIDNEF
Nature of the experiment: FACS on hCMEC/D3 cells, anti-IgG-PE detection, Dig-Cy5 as payload.
Excerpt: To evaluate this functionality of the hapten-binding bispecific antibodies as reported herein, simultaneous cell surface and payload binding was addressed by FACS analyses. For these analyses, cell binding of the blood brain barrier-shuttle module (=bispecific antibody) was detected by phytoerythrin-labeled IgG recognizing secondary antibodies. Simultaneous payload binding was detected by application of a haptenylated fluorescent payload (digoxigenylated Cy5; DIG-Cy5 (see above)).
As to B1, the binding result is “binds”.

As for B2, the binding result is “binds”.

Another experiment deals with T1, human transferrin receptor (TfR) on …. Nature of the experiment: hCMEC/D3 transwell assay, IgG ELISA of cell lysates and media. (ELISA stands for enzyme-linked immunosorbent assay.)
Description: We used brain endothelial cells (hCMEC/D3) to investigate cell binding and transcytosis of the shuttle modules as reported herein. […] To investigate cell binding and transcytosis in hCMEC/D3, hCMEC/D3 cells cultured on filter inserts were incubated apically with the bispecific antibody or parent antibody (without hapten-binding scFvs as controls) for 1 h at 37° C. Cell monolayers were washed at RT in serum-free medium apically (400 μl) and basolaterally (1600 μl) three times for 3-5 min. each. All wash volumes were collected to monitor efficiency of removal of the unbound ligand or antibody. Pre-warmed medium was added to the apical chamber and the filters transferred to a fresh 12 well plate (blocked overnight with PBS containing 1% BSA) containing 1600 μl pre-warmed medium. At this point, cells on some of the filters were lysed in 500 μl RIPA buffer (Sigma, Munich, Germany, #R0278) in order to determine specific uptakes. The remaining filters were incubated at 37° C., and samples of cells and of basolateral and apical media were collected at various time points to determine apical and/or basolateral release. The content of antibody in the samples was quantified using a highly sensitive IgG ELISA.
With B3, the binding result is on record as “binds”.

Turning to B4, the binding result was “binds”.

Turning to B5, the binding result is “binds”.

Regarding B6, the binding result is “binds”.

These data come from patent publication US20210069338A1 (published 2021).
